Experimental data taken from patent US20190062438A1 (CSL, published 2019).
Where a chain is given by its changes, count along the chain named.

Columns and labels:
shCD131 I338A = target: T1, shCD131 I338A (human, UniProt P32927 17-438); test: SPR, Fab over captured mutant
T1 construct: C-terminal 6xHis; also called 1338A
T1 sequence: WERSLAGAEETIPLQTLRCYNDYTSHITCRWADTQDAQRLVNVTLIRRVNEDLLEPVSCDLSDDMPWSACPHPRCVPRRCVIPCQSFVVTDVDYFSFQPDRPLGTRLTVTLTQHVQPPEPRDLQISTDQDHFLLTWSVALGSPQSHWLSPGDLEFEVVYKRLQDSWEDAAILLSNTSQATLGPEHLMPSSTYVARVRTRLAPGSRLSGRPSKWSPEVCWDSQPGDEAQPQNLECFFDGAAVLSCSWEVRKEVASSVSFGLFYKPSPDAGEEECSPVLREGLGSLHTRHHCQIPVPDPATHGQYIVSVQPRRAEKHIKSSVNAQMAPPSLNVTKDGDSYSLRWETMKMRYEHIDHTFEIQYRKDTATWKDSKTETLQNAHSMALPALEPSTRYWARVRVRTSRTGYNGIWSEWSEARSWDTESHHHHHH
Protocol: (§1) As shβc is a dimer, kinetics assays were performed with shβc captured on the sensor surface, and purified Fab injected as the analyte. Avidity effects were avoided by the use of Fab rather than whole IgG.
(§2) shCD131 was captured on spots 1 and 5 of each flow cell for 2 minutes at a concentration of 0.4 μg/ml. […] For some analysis purified Fab was injected over each flow cell for 3 minutes and dissociation was monitored for a further 10 minutes. Regeneration of the surface was performed after each cycle with a 40 second injection of 25 mM glycine, pH 2.0. The analysis was performed with Fabs at several concentrations between 100 and 0.31 nM, with each concentration analyzed twice and in random order. The analysis was performed at a flow rate of 30 μl/min in HBS-EP buffer (10 mM Hepes, 150 mM NaCl, 3 mM EDTA, 0.005% Tween 20, pH 7.4) at 37° C. Responses from spots 2 and 4 of each flow cell, (in which shβc was not captured, but otherwise treated identically), were subtracted from those of spots 1 and 5 respectively to produce reference subtracted data. Reference subtracted responses from a blank injection comprising buffer alone were subtracted from the resultant sensorgrams to produce double referenced data suitable for kinetic analysis. Double-referenced sensorgrams were fitted using non-linear regression to a model describing 1:1 kinetics, including a term for mass transport limitation. The Rₘₐₓ value was fitted locally to account for slight deviations in the level of sCD131 captured, with association rate (kₐ), dissociation rate (kd) and equilibrium dissociation constant (KD) fitted globally.
(§3) Mapping of the shCD131 epitope was performed by measurement of the affinity of Fabs for various alanine point mutants of shCD131 essentially as described above, with the following exceptions. Each shCD131 mutant was captured for 120 seconds at concentrations between 1 and 5 μg/ml. For kinetic analysis, purified recombinant Fabs were injected for 2 minutes, and dissociation was monitored for a further 2 minutes. […] Fab concentrations ranged from 16 μM to 3.9 nM in two-fold dilutions.

shCD131 H42A = target: T2, shCD131 H42A (human, UniProt P32927 17-438); test: SPR, kinetics, Fab over captured mutant
T2 construct: C-terminal 6xHis
T2 sequence: T1 sequence with H26A, A322I
Protocol: as §1, §2, §3

shCD131 V105A = target: T3, shCD131 V105A (human, UniProt P32927 17-438); test: SPR, kinetics, Fab over captured mutant
T3 construct: C-terminal 6xHis
T3 sequence: T1 sequence with V89A, A322I
Protocol: as §1, §2, §3

shCD131 D369A = target: T4, shCD131 D369A (human, UniProt P32927 17-438); test: SPR, kinetics, Fab over captured mutant
T4 construct: C-terminal 6xHis
T4 sequence: T1 sequence with A322I, D353A
Protocol: as §1, §2, §3

binding result (shCD131 I338A): no binding (tested: Fab up to 16 µM) | Kd (shCD131 H42A): 41 nM | Kd (shCD131 V105A): 78 nM | Kd (shCD131 D369A): 28 nM
B1: 9A2 Fab (Fab, V domains shown)
VH: EVQLLESGGGLVQPGGSLRLSCAASGFTFSHYHMLWVRQAPGKGLEWVSSIRSSGGFTYYADSVKGRFTISRDNSKNTLYLQMNSLRAEDTAVYYCARFYDSFFDIWGQGTMVTVSS
VL: DIQMTQSPSSVSASVGDRVTITCRASQGISSWLAWYQQKPGKAPKLLIYAASSLQSGVPSRFSGSGSGTDFTLTISSLQPEDFATYYCQQANSFPITFGQGTRLEIKR
notes: also called recombinant Fab of 9A2
